Reference: patent US8252521B2, “Method of screening substance useful in treating disease with the use of GPR40 and phospholipase” (Eisai R&D Management Co., Ltd., priority 2005, dated 2012)

T1: human GPR43 (Homo sapiens, UniProt O15552)
T1 construct: expressed in transfected cells; host or cells: SE302 cells (HEK293 clone carrying a CRE4-VIP promoter PLAP reporter), infected with retrovirus made from pBabeCL(GPR43)IH and selected with hygromycin
T1 sequence (O15552 1-330): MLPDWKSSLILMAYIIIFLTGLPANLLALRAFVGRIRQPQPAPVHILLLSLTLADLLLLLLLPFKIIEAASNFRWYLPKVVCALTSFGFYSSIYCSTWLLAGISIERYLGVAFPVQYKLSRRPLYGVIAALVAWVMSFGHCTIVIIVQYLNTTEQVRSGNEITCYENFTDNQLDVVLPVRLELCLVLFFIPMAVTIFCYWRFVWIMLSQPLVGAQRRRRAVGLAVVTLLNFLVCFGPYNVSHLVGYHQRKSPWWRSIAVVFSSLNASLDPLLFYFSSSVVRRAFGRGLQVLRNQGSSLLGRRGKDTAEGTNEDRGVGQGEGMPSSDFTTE

B1: hGX-sPLA2-His: purified human C-terminal His-tagged Group X secretory phospholipase A2, expressed in Sf9 cells (protein, UniProt O15496 43-165, looked up)
Group 10 secretory …: GILELAGTVGCVGPRTPIAYMKYGCFCGLGGHGQPRDAIDWCCHGHDCCYTRAEEAGCSPKTERYSWQCVNQSVLCGPAENKCQELLCKCDQEIANCLAQTEYNLKYLFYPQFLCEPDSPKCD
modifications: C-terminal His6 tag
notes: purified human C-terminal His-tagged Group X secretory phospholipase A2, expressed in Sf9 cells
B2: C-terminal FLAG tagged hGX-sPLA2: C-terminal FLAG-tagged human GX-sPLA2 (SEQ ID NO: 41), purified from silkworm pupa extract (protein, listed as Homo sapiens)
chain: MGPLPVCLPIMLLLLLPSLLLLLLLPGPGSGEASRILRVHRRGILELAGTVGCVGPRTPIAYMKYGCFCGLGGHGQPRDAIDWCCHGHDCCYTRAEEAGCSPKTERYSWQCVNQSVLCGPAENKCQELLCKCDQEIANCLAQTEYNLKYLFYPQFLCEPDSPKCDDYKDDDDK
modifications: C-terminal FLAG tag
B3: C-terminal FLAG tagged mGX-sPLA2: C-terminal FLAG-tagged mouse GX-sPLA2 (SEQ ID NO: 43), purified from Sf-9 culture supernatant (protein, listed as Mus musculus)
chain: MLLLLLLLLLGPGPGFSEATRRSHVYKRGLLELAGTLDCVGPRSPMAYMNYGCYCGLGGHGEPRDAIDWCCYHHDCCYSRAQDAGCSPKLDRYPWKCMDHHILCGPAENKCQELLCRCDEELAYCLAGTEYHLKYLFFPSILCEKDSPKCNDYKDDDDK
modifications: C-terminal FLAG tag
B4: mGX-sPLA2-His: purified mouse C-terminal His-tagged Group X secretory phospholipase A2, expressed in Sf9 cells (protein, UniProt Q9QXX3 29-151, looked up)
Group 10 secretory …: GLLELAGTLDCVGPRSPMAYMNYGCYCGLGGHGEPRDAIDWCCYHHDCCYSRAQDAGCSPKLDRYPWKCMDHHILCGPAENKCQELLCRCDEELAYCLAGTEYHLKYLFFPSILCEKDSPKCN
modifications: C-terminal His6 tag
notes: purified mouse C-terminal His-tagged Group X secretory phospholipase A2, expressed in Sf9 cells

Key:
Format in all cases: cell-based
Conditions in all cases: forskolin 0.3 μM, 24 hours with sample
[1] = molecular target: T2, human GPR40 (Homo sapiens, UniProt O14842); assay: PLAP reporter transcription activity in GPR40-SE302 cells
T2 construct: expressed in transfected cells; host or cells: SE302 cells (HEK293 clone carrying a CRE4-VIP promoter PLAP reporter), infected with retrovirus made from pBabeCL(GPR40)IH and selected with hygromycin
Protocol: (§1) The GPR40-SE302 cells and GPR43-SE302 cells constructed in Examples 6 and 7 described above were suspended in a culture medium for measurement of transcription activity (DMEM containing FBS, which was heat-treated at 65° C. for 30 min, at a final concentration of 10%) and seeded onto a 96 well plate (Becton Dickinson, Co.) at 1×10^4 cells/well. In addition, as control cells, SE302 cells expressing green fluorescent protein (GFP, Invitrogen Corporation) (referred to as “GFP-SE302 cells” hereinafter) were used. Specifically, GFP-302 cells were prepared by obtaining a virus for expressing GFP using the method shown in Example 3 and 4, and transfecting SE302 cells with the virus using the method shown in Example 6. Cells were cultured for 24 hours after seeding, and forskolin prepared at a final concentration of 0.3 μM and a sample were added. Cells were cultured for another 24 hours, and 5 μL of the cell supernatant was recovered and transferred to a polypropylene 384-well white plate (Nalge Nunc International, Co.). Then, 20 μL of the assay buffer (280 mmol/L Na2CO3—NaHCO3, 8 mmol/L MgSO4, pH 10) and 25 μL of Lumiphos530 (Lumigen, Co.) were added. Following a 2-hour reaction at room temperature, chemiluminescence in each well was measured using a Fusion plate reader (Perkin Elmer, Co.) and was defined as the transcription activity. Based on these measured levels, stimulation/inhibition of transcription activity was calculated using the equation (I) shown below and described as [% of control]. Activities of the group with a sample added were calculated using the level of a control placed on each plate. [% of control]=(X−C)/(F−C)×100 (I) wherein,
(§2) X: PLAP transcription activity in the group added with a sample,
(§3) F: Mean level of transcription activity in 2 wells of a positive control (no sample added, stimulated with forskolin), and
(§4) C: Mean level of transcription activity in 2 wells of a negative control (no sample added, not stimulated with forskolin).

[2] = molecular target: T1, human GPR43; assay: PLAP reporter transcription activity in GPR43-SE302 cells
Protocol: as §1, §2, §3, §4

[3] = test system: GFP-SE302 cells; assay: PLAP reporter transcription activity in GFP-SE302 control cells
Protocol: as §1, §2, §3, §4

T2 sequence (O14842 whole entry): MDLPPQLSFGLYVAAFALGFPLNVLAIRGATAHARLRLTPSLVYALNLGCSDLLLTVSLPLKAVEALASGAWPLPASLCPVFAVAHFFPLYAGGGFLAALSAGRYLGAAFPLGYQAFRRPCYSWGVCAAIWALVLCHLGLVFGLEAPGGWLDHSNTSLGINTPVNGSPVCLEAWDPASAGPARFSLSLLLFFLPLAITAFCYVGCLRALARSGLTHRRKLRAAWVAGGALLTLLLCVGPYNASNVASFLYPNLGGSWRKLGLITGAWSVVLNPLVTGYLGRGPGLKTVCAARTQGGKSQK

| Molecule | PLAP activity in GPR40-SE302 cells [1] | PLAP activity in GPR43-SE302 cells [2] | PLAP activity in GFP-SE302 cells [3] |
| --- | --- | --- | --- |
| porcine pancreatic sPLA2: Phospholipase A2 from porcine pancreas, Sigma; primarily Group IB secretory phospholipase A2 (Swiss Prot P00592) | concentration dependent elevation of PLAP activity | no elevation of PLAP activity | no elevation of PLAP activity |
| B1 | concentration dependent elevations of PLAP activity |  | no specific elevation of PLAP activity |
| B2 | concentration-dependent elevation of PLAP activity | no elevation of PLAP activity | no elevation of PLAP activity |
| B3 | concentration-dependent elevation of PLAP activity | no elevation of PLAP activity | no elevation of PLAP activity |
| B4 | concentration dependent elevations of PLAP activity |  | no specific elevation of PLAP activity |
